B1: CDC25A (parent)
chain: TVAGKHQDLKYISPEIMASVLNGK
B2: ZNF207 (parent)
chain: CHICHKKLYTGPGLAIHCMQVHKE

The values that follow come from the supplement of paper PMC10567573.
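Also: lentivirally expressed fusions sorted by FACS into six bins by GFP to DsRed ratio, PSI derived from sequencing read proportions per bin multiplied by bin number.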

The first data set covers variants of B1. As to the kind of experiment: protein stability index of a GFP-peptide fusion (GPS, HEK-293T) (PSI 1-6); higher = more stable. The settings on record: c terminus: a fixed tail appended.
Consider TVAGKHQDLKYISPEIMASVLAGK, for which the protein stability index was determined as 2.92. In the case of TVAGKHQDLKYISPEIMASVLCGK, the protein stability index stood at 2.53. Same read-out and setting: under TVAGKHQDLKYISPEIMASVLFGK stands 1.93; under TVAGKHQDLKYISPEIMASVLQGK, 3.37; under TVAGKHQDLKYISPEIMASVLIGK, 2.77. The same measure, in the same setting: with TVAGKHQDLKYISPEIMASVLSGK the figure was 3.27; with TVAGKHQDLKYISPEIMASVLMGK, 2.66. For the variant TVAGKHQDLKYISPEIMASVLVGK, the protein stability index was 2.55. As to TVAGKHQDLKYISPEIMASVLLGK, the protein stability index amounted to 2.56.

TVAGKHQDLKYISPEIMASVLEGK: the protein stability index was determined as 3.92. The same measure, in the same setting: under TVAGKHQDLKYISPEIMASVLYGK stands 2.41; under TVAGKHQDLKYISPEIMASVLPGK, 3.4; under TVAGKHQDLKYISPEIMASVLTGK, 2.88. Still for that read-out and setting: under TVAGKHQDLKYISPEIMASVLDGK stands 3.54; under TVAGKHQDLKYISPEIMASVLHGK, 2.96; under TVAGKHQDLKYISPEIMASVLWGK, 1.95. Same read-out and setting: with TVAGKHQDLKYISPEIMASVLGGK the figure was 2.84; with TVAGKHQDLKYISPEIMASVLKGK, 2.94; with TVAGKHQDLKYISPEIMASVLRGK, 2.71.

With TVAGKHQDLKYISPEIMASVLNGN, the protein stability index was 3.21.

As to TVAGKHQDLKYISPEIMASVLNGT, the protein stability index came to 2.69. Still for that read-out and setting: with TVAGKHQDLKYISPEIMASVLNGG the figure was 2.87; with TVAGKHQDLKYISPEIMASVLNGI, 2.01.

On to TVAGKHQDLKYISPEIMASVLNGV, for which the protein stability index amounted to 2.09. On the same count and under the same terms, under TVAGKHQDLKYISPEIMASVLNGH stands 2.44; under TVAGKHQDLKYISPEIMASVLNGF, 1.89; under TVAGKHQDLKYISPEIMASVLNGS, 2.94.

As for TVAGKHQDLKYISPEIMASVLNGM, the protein stability index is 2.36. TVAGKHQDLKYISPEIMASVLNGD: the protein stability index came out at 3.61. Still for that read-out and setting: with TVAGKHQDLKYISPEIMASVLNGC the figure was 2.42; with TVAGKHQDLKYISPEIMASVLNGA, 2.67; with TVAGKHQDLKYISPEIMASVLNGE, 3.73. Consider TVAGKHQDLKYISPEIMASVLNGL, for which the protein stability index was found to be 2.01.

With TVAGKHQDLKYISPEIMASVLNGR, the protein stability index stood at 3.06. For TVAGKHQDLKYISPEIMASVLNGY, the protein stability index stood at 2.01. Same read-out and setting: under TVAGKHQDLKYISPEIMASVLNGP stands 3.26; under TVAGKHQDLKYISPEIMASVLNGW, 1.93.

In the case of TVAGKHQDLKYISPEIMASVLNGQ, the protein stability index worked out at 3.4.

As to TVAGKHQDLKYISPEIMASVLNTK, the protein stability index is 3.25. TVAGKHQDLKYISPEIMASVLNVK: the protein stability index was found to be 2.61. With TVAGKHQDLKYISPEIMASVLNLK, the protein stability index is 2.63. Consider TVAGKHQDLKYISPEIMASVLNNK, for which the protein stability index amounted to 3.9. Consider TVAGKHQDLKYISPEIMASVLNYK, for which the protein stability index stood at 2.35. As to TVAGKHQDLKYISPEIMASVLNPK, the protein stability index came out at 2.56. For TVAGKHQDLKYISPEIMASVLNIK, the protein stability index amounted to 2.48. Same read-out and setting: with TVAGKHQDLKYISPEIMASVLNCK the figure was 2.63; with TVAGKHQDLKYISPEIMASVLNEK, 3.69. Same read-out and setting: with TVAGKHQDLKYISPEIMASVLNAK the figure was 2.96; with TVAGKHQDLKYISPEIMASVLNHK, 2.9. As for TVAGKHQDLKYISPEIMASVLNSK, the protein stability index was 3.01. Still for that read-out and setting: with TVAGKHQDLKYISPEIMASVLNDK the figure was 3.57; with TVAGKHQDLKYISPEIMASVLNRK, 3.37; with TVAGKHQDLKYISPEIMASVLNKK, 3.36.

Turning to TVAGKHQDLKYISPEIMASVLNWK, the protein stability index came out at 2.33. On the same count and under the same terms, with TVAGKHQDLKYISPEIMASVLNFK the figure was 2.37; with TVAGKHQDLKYISPEIMASVLNMK, 2.46; with TVAGKHQDLKYISPEIMASVLNQK, 3.4. With TVAGKHQDLKYISPEIMASVNNGK, the protein stability index worked out at 3.65. Still for that read-out and setting: under TVAGKHQDLKYISPEIMASVFNGK stands 3.16; under TVAGKHQDLKYISPEIMASVGNGK, 3.83; under TVAGKHQDLKYISPEIMASVRNGK, 3.7.

In the case of TVAGKHQDLKYISPEIMASVWNGK, the protein stability index turned out to be 3.17.

TVAGKHQDLKYISPEIMASVPNGK: the protein stability index worked out at 4.08.

As for TVAGKHQDLKYISPEIMASVMNGK, the protein stability index turned out to be 3.4. Turning to TVAGKHQDLKYISPEIMASVHNGK, the protein stability index was found to be 4.05.

Turning to TVAGKHQDLKYISPEIMASVYNGK, the protein stability index turned out to be 3.18.

Regarding TVAGKHQDLKYISPEIMASVSNGK, the protein stability index is 3.8. For TVAGKHQDLKYISPEIMASVKNGK, the protein stability index was 4.25. Still for that read-out and setting: under TVAGKHQDLKYISPEIMASVTNGK stands 3.84. On to TVAGKHQDLKYISPEIMASVENGK, for which the protein stability index was 4.02. On the same count and under the same terms, with TVAGKHQDLKYISPEIMASVVNGK the figure was 3.54; with TVAGKHQDLKYISPEIMASVINGK, 3.35. Same read-out and setting: under TVAGKHQDLKYISPEIMASVQNGK stands 4.

The variants in another data set derive from B2. Described as above. The settings on record: c terminus: a fixed tail appended.
For GHICHKKLYTGPGLAIHCMQVHKE, the protein stability index worked out at 2.07. The same measure, in the same setting: with THICHKKLYTGPGLAIHCMQVHKE the figure was 1.94. Still for that read-out and setting: under IHICHKKLYTGPGLAIHCMQVHKE stands 1.52; under AHICHKKLYTGPGLAIHCMQVHKE, 2.02.

For LHICHKKLYTGPGLAIHCMQVHKE, the protein stability index came to 1.94.

PHICHKKLYTGPGLAIHCMQVHKE: the protein stability index came to 2.69. In the case of MHICHKKLYTGPGLAIHCMQVHKE, the protein stability index came to 2.03. For the variant EHICHKKLYTGPGLAIHCMQVHKE, the protein stability index came out at 2.76.

As for HHICHKKLYTGPGLAIHCMQVHKE, the protein stability index stood at 1.83.

Take SHICHKKLYTGPGLAIHCMQVHKE: the protein stability index was 2.58. In the case of KHICHKKLYTGPGLAIHCMQVHKE, the protein stability index amounted to 2.16. Still for that read-out and setting: with DHICHKKLYTGPGLAIHCMQVHKE the figure was 2.78; with RHICHKKLYTGPGLAIHCMQVHKE, 3. With NHICHKKLYTGPGLAIHCMQVHKE, the protein stability index is 2.24. Take QHICHKKLYTGPGLAIHCMQVHKE: the protein stability index was 1.8.

Consider YHICHKKLYTGPGLAIHCMQVHKE, for which the protein stability index is 2.84. Take CHICKKKLYTGPGLAIHCMQVHKE: the protein stability index came to 2.55. Turning to CHICPKKLYTGPGLAIHCMQVHKE, the protein stability index was determined as 2.39. Take CHICGKKLYTGPGLAIHCMQVHKE: the protein stability index was found to be 3.35. Turning to CHICRKKLYTGPGLAIHCMQVHKE, the protein stability index is 2.96. Same read-out and setting: under CHICCKKLYTGPGLAIHCMQVHKE stands 2.4.
